Drawing on PMC7591262, this text covers FRET (acceptor photobleaching) for one substance.

This assay concerns the target Wtf4^antidote-mCherry (S. kambucha). Kind of assay: FRET or BRET. (BRET reads energy transfer from a luciferase to a nearby fluorophore.)

Wtf4^poison-GFP (natural protein) gave an FRET (acceptor photobleaching) of 40%.
